For nine molecules, Kd results are on record in patent US20220025008A1 (FAPON BIOTECH, published 2022).

To fix the notation:
T1: Recombinant NT antigen (N-terminal pro-brain natriuretic peptide, NT-proBNP) (human, UniProt P16860 27-102)
T1 construct: domain: N-terminal pro-brain natriuretic peptide (NT-proBNP); also called recombinant NT protein; N-terminal pro-B-type natriuretic peptide
T1 sequence (looked up): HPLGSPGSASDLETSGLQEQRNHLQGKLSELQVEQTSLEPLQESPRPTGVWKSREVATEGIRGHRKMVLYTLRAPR

B1: Mutation 1-15 (antibody)
heavy: QVRLQESGPSQVKPAQTLSLTCAISGFSVTTYYIDWVRHTPGKPPEWLAQMTKDGNAVHNPTLRSRLSITRDTSKSQVFLKLTGVTTEDTAVYYCVRGLIDFGPGLLVTVSSASTTPPKVYPLTSCCGDTSSSIVTLGCLVSSYMPEPVTVTWNSGALTSGVHTFPAILQSSGLYSLSSVVTVPASTSGAQTFICNVAHPASSTKVDKRVEPGCPDPCKHCRCPPPELPGGPSVFIFPPKPKDTLTISGTPEVTCVVVDVGQDDPEVQFSWFVDNVEVRTARTKPREEQFNSTFRVVSALPIQHQDWTGGKEFKCKVHNEGLPAPIVRTISRTKGQAREPQVYVLAPPQEELSKSTLSVTCLVTGFYPDYIAVEWQKNGQPESEDKYGTTTSQLDADGSYFLYSRLRVDKNSWQEGDTYACVVMHEALHNHYTQKSISKPPGK
light: QAVLTQPSSVSRSLGQTVSITCSGSSDNVGFGDYVNWFQLIPGSAPKTLIFGATSRIRGVPDRFSGSRSGNTATLTINSLQAEDEADYYCGSANSRNYVFGSGTRLTVLSQPKSAPSVTLFPPSKEELDTNKATVVCLISDFYPGSVNVVWKADGSTINQNVKTTQASKQSNSKYAASSYLTLTGSEWKSKSSYTCEVTHEGSTVTKTVKPSECS
B2: Mutation 1-31 (antibody)
heavy: QVRLQESGPSQVKPAQTLSLTCAISGFSLTTYYLDWVRHTPGKPPEWLAQMTKDGNAVHQPTVRSRLSITRDTSKSQVFLKLTGVTTEDTAVYYCVRGIIDFGPGLLVTVSSASTTPPKVYPLTSCCGDTSSSIVTLGCLVSSYMPEPVTVTWNSGALTSGVHTFPAILQSSGLYSLSSVVTVPASTSGAQTFICNVAHPASSTKVDKRVEPGCPDPCKHCRCPPPELPGGPSVFIFPPKPKDTLTISGTPEVTCVVVDVGQDDPEVQFSWFVDNVEVRTARTKPREEQFNSTFRVVSALPIQHQDWTGGKEFKCKVHNEGLPAPIVRTISRTKGQAREPQVYVLAPPQEELSKSTLSVTCLVTGFYPDYIAVEWQKNGQPESEDKYGTTTSQLDADGSYFLYSRLRVDKNSWQEGDTYACVVMHEALHNHYTQKSISKPPGK
light: QAVLTQPSSVSRSLGQTVSITCSGSSDNVGFGDYLNWFQLIPGSAPKTLIFGATSRLRGVPDRFSGSRSGNTATLTINSLQAEDEADYYCGSGNSRNYVFGSGTRLTVLSQPKSAPSVTLFPPSKEELDTNKATVVCLISDFYPGSVNVVWKADGSTINQNVKTTQASKQSNSKYAASSYLTLTGSEWKSKSSYTCEVTHEGSTVTKTVKPSECS
B3: Mutation 1-37 (antibody)
heavy: QVRLQESGPSQVKPAQTLSLTCAISGFSITTYYLDWVRHTPGKPPEWLAQMTKDGNAVHNPTIRSRLSITRDTSKSQVFLKLTGVTTEDTAVYYCVRGIIDFGPGLLVTVSSASTTPPKVYPLTSCCGDTSSSIVTLGCLVSSYMPEPVTVTWNSGALTSGVHTFPAILQSSGLYSLSSVVTVPASTSGAQTFICNVAHPASSTKVDKRVEPGCPDPCKHCRCPPPELPGGPSVFIFPPKPKDTLTISGTPEVTCVVVDVGQDDPEVQFSWFVDNVEVRTARTKPREEQFNSTFRVVSALPIQHQDWTGGKEFKCKVHNEGLPAPIVRTISRTKGQAREPQVYVLAPPQEELSKSTLSVTCLVTGFYPDYIAVEWQKNGQPESEDKYGTTTSQLDADGSYFLYSRLRVDKNSWQEGDTYACVVMHEALHNHYTQKSISKPPGK
light: QAVLTQPSSVSRSLGQTVSITCSGSSDQVGFGDYLNWFQLIPGSAPKTLIFGATSRLRGVPDRFSGSRSGNTATLTINSLQAEDEADYYCGSANSRNYVFGSGTRLTVLSQPKSAPSVTLFPPSKEELDTNKATVVCLISDFYPGSVNVVWKADGSTINQNVKTTQASKQSNSKYAASSYLTLTGSEWKSKSSYTCEVTHEGSTVTKTVKPSECS
B4: Mutation 1-27 (antibody)
heavy: QVRLQESGPSQVKPAQTLSLTCAISGFSITTYYIDWVRHTPGKPPEWLAQMTKDGNAVHNPTLRSRLSITRDTSKSQVFLKLTGVTTEDTAVYYCVRGLIDFGPGLLVTVSSASTTPPKVYPLTSCCGDTSSSIVTLGCLVSSYMPEPVTVTWNSGALTSGVHTFPAILQSSGLYSLSSVVTVPASTSGAQTFICNVAHPASSTKVDKRVEPGCPDPCKHCRCPPPELPGGPSVFIFPPKPKDTLTISGTPEVTCVVVDVGQDDPEVQFSWFVDNVEVRTARTKPREEQFNSTFRVVSALPIQHQDWTGGKEFKCKVHNEGLPAPIVRTISRTKGQAREPQVYVLAPPQEELSKSTLSVTCLVTGFYPDYIAVEWQKNGQPESEDKYGTTTSQLDADGSYFLYSRLRVDKNSWQEGDTYACVVMHEALHNHYTQKSISKPPGK
light: QAVLTQPSSVSRSLGQTVSITCSGSSDNVGFGDYVNWFQLIPGSAPKTLIFGASSRIRGVPDRFSGSRSGNTATLTINSLQAEDEADYYCGSANSRNYVFGSGTRLTVLSQPKSAPSVTLFPPSKEELDTNKATVVCLISDFYPGSVNVVWKADGSTINQNVKTTQASKQSNSKYAASSYLTLTGSEWKSKSSYTCEVTHEGSTVTKTVKPSECS
B5: Mutation 1-25 (antibody)
heavy: QVRLQESGPSQVKPAQTLSLTCAISGFSVTTYYLDWVRHTPGKPPEWLAQMTKDGNAVHNPTIRSRLSITRDTSKSQVFLKLTGVTTEDTAVYYCVRGIIDFGPGLLVTVSSASTTPPKVYPLTSCCGDTSSSIVTLGCLVSSYMPEPVTVTWNSGALTSGVHTFPAILQSSGLYSLSSVVTVPASTSGAQTFICNVAHPASSTKVDKRVEPGCPDPCKHCRCPPPELPGGPSVFIFPPKPKDTLTISGTPEVTCVVVDVGQDDPEVQFSWFVDNVEVRTARTKPREEQFNSTFRVVSALPIQHQDWTGGKEFKCKVHNEGLPAPIVRTISRTKGQAREPQVYVLAPPQEELSKSTLSVTCLVTGFYPDYIAVEWQKNGQPESEDKYGTTTSQLDADGSYFLYSRLRVDKNSWQEGDTYACVVMHEALHNHYTQKSISKPPGK
light: QAVLTQPSSVSRSLGQTVSITCSGSSDQVGFGDYLNWFQLIPGSAPKTLIFGASSRLRGVPDRFSGSRSGNTATLTINSLQAEDEADYYCGSPNSRNYVFGSGTRLTVLSQPKSAPSVTLFPPSKEELDTNKATVVCLISDFYPGSVNVVWKADGSTINQNVKTTQASKQSNSKYAASSYLTLTGSEWKSKSSYTCEVTHEGSTVTKTVKPSECS
B6: Mutation 1-34 (antibody, V domains shown)
VH: QVRLQESGPSQVKPAQTLSLTCAISGFSVTTYYLDWVRHTPGKPPEWLAQMTKDGNAVHNPTIRSRLSITRDTSKSQVFLKLTGVTTEDTAVYYCVRGVIDWGPGLLVTVSS
VL: QAVLTQPSSVSRSLGQTVSITCSGSSDQVGFGDYLNWFQLIPGSAPKTLIFGAYSRLRGVPDRFSGSRSGNTATLTINSLQAEDEADYYCGSANSRNYVFGSGTRLTVLS
B7: Mutation 1-39 (antibody)
heavy: QVRLQESGPSQVKPAQTLSLTCAISGFSLTTYYIDWVRHTPGKPPEWLAQMTKDGNAVHNPTLRSRLSITRDTSKSQVFLKLTGVTTEDTAVYYCVRGLIDFGPGLLVTVSSASTTPPKVYPLTSCCGDTSSSIVTLGCLVSSYMPEPVTVTWNSGALTSGVHTFPAILQSSGLYSLSSVVTVPASTSGAQTFICNVAHPASSTKVDKRVEPGCPDPCKHCRCPPPELPGGPSVFIFPPKPKDTLTISGTPEVTCVVVDVGQDDPEVQFSWFVDNVEVRTARTKPREEQFNSTFRVVSALPIQHQDWTGGKEFKCKVHNEGLPAPIVRTISRTKGQAREPQVYVLAPPQEELSKSTLSVTCLVTGFYPDYIAVEWQKNGQPESEDKYGTTTSQLDADGSYFLYSRLRVDKNSWQEGDTYACVVMHEALHNHYTQKSISKPPGK
light: QAVLTQPSSVSRSLGQTVSITCSGSSDNVGFGDYVNWFQLIPGSAPKTLIFGAYSRIRGVPDRFSGSRSGNTATLTINSLQAEDEADYYCGSGNSRNYVFGSGTRLTVLSQPKSAPSVTLFPPSKEELDTNKATVVCLISDFYPGSVNVVWKADGSTINQNVKTTQASKQSNSKYAASSYLTLTGSEWKSKSSYTCEVTHEGSTVTKTVKPSECS
B8: Mutation 1-49 (antibody)
heavy: QVRLQESGPSQVKPAQTLSLTCAISGFSLTTYYLDWVRHTPGKPPEWLAQMTKDGNAVHNPTIRSRLSITRDTSKSQVFLKLTGVTTEDTAVYYCVRGIIDFGPGLLVTVSSASTTPPKVYPLTSCCGDTSSSIVTLGCLVSSYMPEPVTVTWNSGALTSGVHTFPAILQSSGLYSLSSVVTVPASTSGAQTFICNVAHPASSTKVDKRVEPGCPDPCKHCRCPPPELPGGPSVFIFPPKPKDTLTISGTPEVTCVVVDVGQDDPEVQFSWFVDNVEVRTARTKPREEQFNSTFRVVSALPIQHQDWTGGKEFKCKVHNEGLPAPIVRTISRTKGQAREPQVYVLAPPQEELSKSTLSVTCLVTGFYPDYIAVEWQKNGQPESEDKYGTTTSQLDADGSYFLYSRLRVDKNSWQEGDTYACVVMHEALHNHYTQKSISKPPGK
light: QAVLTQPSSVSRSLGQTVSITCSGSSDQVGFGDYLNWFQLIPGSAPKTLIFGATSRLRGVPDRFSGSRSGNTATLTINSLQAEDEADYYCGSPNSRNYVFGSGTRLTVLSQPKSAPSVTLFPPSKEELDTNKATVVCLISDFYPGSVNVVWKADGSTINQNVKTTQASKQSNSKYAASSYLTLTGSEWKSKSSYTCEVTHEGSTVTKTVKPSECS
B9: Mutation 1-22 (antibody, V domains shown)
VH: QVRLQESGPSQVKPAQTLSLTCAISGFSLTTYYLDWVRHTPGKPPEWLAQMTKDGNAVHNPTIRSRLSITRDTSKSQVFLKLTGVTTEDTAVYYCVRGVIDWGPGLLVTVSS
VL: QAVLTQPSSVSRSLGQTVSITCSGSSDQVGFGDYLNWFQLIPGSAPKTLIFGAYSRLRGVPDRFSGSRSGNTATLTINSLQAEDEADYYCGSANSRNYVFGSGTRLTVLS

A word on the Kd: it is the constant that tells how readily two partners part at equilibrium.

This experiment deals with T1, Recombinant NT antigen (N-terminal …). Description: indirect ELISA, KD calculated from half-max OD at 4 coating concentrations. The method, then: Recombinant NT antigen was diluted with coating solution to 1 μg/ml a microplate overnight at 4° C.; which was washed twice with washing solution and patted dry on the next day; with addition of blocking solution (20% BSA+80% PBS) at 120 μL per well at 37° C. for 1 h and patted dry; added the diluted NT monoclonal antibody, 100 μL/well at 37° C. for 30 min (partial supernatant for 1 h); washed 5 times with washing solution and patted dry; added rabbit anti-goat IgG-HRP […] per well at 37° C. for 30 min; washed 5 times with washing solution and patted dry; added color developing solution A (50 μL/well), added color developing solution B (50 μL/well) for 10 min; added stop solution, 50 μL/well; followed by reading the OD value at 450 nm (reference 630 nm) on the microplate reader.
Data from the enzyme immunoassay indirect method were analyzed in the same way as the activity identification, with four gradients of 3 μg/ml, 1.5 μg/ml, 0.75 μg/ml and 0.375 μg/ml for coating; the antibody was diluted from 1000 ng/ml by 2 times to 0.977 ng/ml for loading sample. OD values corresponding to different antibody concentrations at different coating concentrations were obtained. Under the same coating concentration, data were plotted logarithmically with the antibody concentration as the abscissa and the OD value as the ordinate.
Consider B1, for which the Kd was 1.76 nM. For the molecule B2, the Kd is 1.84 nM. Regarding B3, the Kd was 1.57 nM. As to B4, the Kd is 0.855 nM. Take B5: the Kd was 2.16 nM. On to B6, for which the Kd is 3.12 nM. With B7, the Kd is 2.45 nM. As for B8, the Kd was 6.83 nM. With B9, the Kd was 2.07 nM.
